Laboratory results from PMC4829898.

Molecular target: recombinant soluble tetrameric neuraminidase (tetNA) (Staphylothermus marinus | influenza A virus A/Belgium/2009 (H1N1, 2009 pandemic))
Test: SEC

Question: Which stoichiometry N does the source give for “recombinant soluble tetrameric neuraminidase (tetNA) (enzyme)” here?
Answer: The stoichiometry N was 4.
